Earlier results in PMC4376447.

Target: S100A10 (Homo sapiens) (UniProt P60903)
Assay: ITC

Chain of UniProt P60903 (P60903 whole entry): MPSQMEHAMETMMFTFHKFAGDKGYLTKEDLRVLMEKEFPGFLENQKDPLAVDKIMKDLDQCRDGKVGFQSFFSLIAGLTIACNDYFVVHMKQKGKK

Substance: Annexin A2 N-terminus (from UniProt P07355)
- Kd: 500 nM
